According to patent publication US20190040156A1:

Key:
human TNFα (human) = human TNFα (human) (UniProt P01375); experiment: CG-MALS of antibody:TNFα complexes, molar ratios about 0.5 to 5.0, antibody 10 µg/mL, PBS pH 7.2
[1] = biological target: human FcγRI (CD64) (human) (UniProt P12314); experiment: SPR, Biacore T200, antibody captured on protein A, FcγR as analyte, 37 °C, N=3
[2] = biological target: human FcγRIIb (CD32b) (human) (UniProt P31994); experiment: as above
Sequence of human FcγRIIb (CD32b) (human) (P31994 43-217 limits assumed): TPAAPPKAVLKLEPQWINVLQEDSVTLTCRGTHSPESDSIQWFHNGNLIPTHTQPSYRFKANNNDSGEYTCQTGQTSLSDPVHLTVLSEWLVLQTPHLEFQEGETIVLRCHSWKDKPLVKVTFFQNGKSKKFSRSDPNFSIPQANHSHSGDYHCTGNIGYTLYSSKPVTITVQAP

Sequence of human TNFα (human) (P01375 77-233 limits assumed): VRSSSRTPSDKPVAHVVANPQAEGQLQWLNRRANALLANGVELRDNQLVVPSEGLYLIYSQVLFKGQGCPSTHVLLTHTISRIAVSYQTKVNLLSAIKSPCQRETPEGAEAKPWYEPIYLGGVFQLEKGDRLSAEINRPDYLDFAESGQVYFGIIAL
Sequence of human FcγRI (CD64) (human) (P12314 16-288 limits assumed): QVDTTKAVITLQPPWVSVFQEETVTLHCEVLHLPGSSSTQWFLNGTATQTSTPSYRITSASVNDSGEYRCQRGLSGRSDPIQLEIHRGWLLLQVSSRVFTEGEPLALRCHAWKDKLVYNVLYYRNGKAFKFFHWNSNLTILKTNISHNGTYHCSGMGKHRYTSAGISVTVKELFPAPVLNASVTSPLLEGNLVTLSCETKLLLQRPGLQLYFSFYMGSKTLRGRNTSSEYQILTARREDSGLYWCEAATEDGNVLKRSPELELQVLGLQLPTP

In the case of “parental anti-TNFα antibody (adalimumab, as described in U.S. Pat. No. 6,090,382)”, the maximum immune complex weight average molecular weight (human TNFα (human)) is reported as > 1300 kDa, the Kd [1] is reported as 0.0563 nM and the Kd [2] is reported as 5730 nM.
